The test system of series [1] is Peripheral blood mononuclear cells (PBMC). The experiment in a line: Cytokine induction in an in vitro human blood cell system (IFN-α and TNF-α secreted into culture media). It counts as cell-based. Conditions: 18 to 24 hours; for Minimum Effective Concentration (µM) IFN-α: lowest tested concentration inducing IFN-α over fixed level (usually 20 pg/mL); for Minimum Effective Concentration (µM) TNF: lowest tested concentration inducing TNF-α over fixed level (usually 40 pg/mL). An excerpt:
An in vitro human blood cell system is used to assess cytokine induction. Activity is based on the measurement of interferon (α) and tumor necrosis factor (α) (IFN-α and TNF-α, respectively) secreted into culture media as described by Testerman et. al. in “Cytokine Induction by the Immunomodulators Imiquimod and S-27609,” Journal of Leukocyte Biology, 58, 365-372 (September, 1995).
Whole blood from healthy human donors is collected by venipuncture into vacutainer tubes or syringes containing EDTA. Peripheral blood mononuclear cells (PBMC) are separated from whole blood by density gradient centrifugation using HISTOPAQUE-1077 (Sigma, St. Louis, Mo.) or Ficoll-Paque Plus (Amersham Biosciences Piscataway, N.J.). Blood is diluted 1:1 with Dulbecco's Phosphate Buffered Saline (DPBS) or Hank's Balanced Salts Solution (HBSS). Alternately, whole blood is placed in Accuspin (Sigma) or LeucoSep (Greiner Bio-One, Inc., Longwood, Fla.) centrifuge frit tubes containing density gradient medium. The PBMC layer is collected and washed twice with DPBS or HBSS and re-suspended at 4×10^6 cells/mL in RPMI complete. The PBMC suspension is added to 96 well flat bottom sterile tissue culture plates containing an equal volume of RPMI complete media containing test compound.
The compounds are solubilized in dimethyl sulfoxide (DMSO). The DMSO concentration should not exceed a final concentration of 1% for addition to the culture wells. The compounds are generally tested at concentrations ranging from 30-0.014 μM. Controls include cell samples with media only, cell samples with DMSO only (no compound), and cell samples with reference compound. […]
Following incubation the plates are centrifuged for 10 minutes at 1000 rpm (approximately 200×g) at 4° C. […] The samples are analyzed for IFN-α by ELISA and for TNF-α by IGEN/BioVeris Assay.
IFN-α concentration is determined with a human multi-subtype calorimetric sandwich ELISA (Catalog Number 41105) from PBL Biomedical Laboratories, Piscataway, N.J. Results are expressed in pg/mL.
The TNF-α concentration is determined by ORIGEN M-Series Immunoassay and read on an IGEN M-8 analyzer from BioVeris Corporation, formerly known as IGEN International, Gaithersburg, Md. […]
Analysis of the data has two steps. First, the greater of the mean DMSO (DMSO control wells) or the experimental background (usually 20 pg/mL for IFN-α and 40 pg/mL for TNF-α) is subtracted from each reading. If any negative values result from background subtraction, the reading is reported as
“*”, and is noted as not reliably detectable. […] The adjustment ratio is the area of the reference compound in the new experiment divided by the expected area of the reference compound based on the past 61 experiments (unadjusted readings). […]

The nature of series [2]: Solubility in normal saline and phosphate buffered saline (saturated solutions, 25° C., 7 days, HPLC). It counts as physicochemical. The note with it: for Solubility Fold Increase: Example 6 over IRM2; for solubility at 7 days: thermodynamic from solid. The method, then:
The solubility of IRM2 and the IRM-polymer complex exemplified in Example 6 was determined in normal saline and phosphate buffered saline (PBS) at pH 7.4. Each compound was added to each medium until saturation had been reached. Vials containing the saturated solutions were capped and placed into a shaking water bath at 25° C. After 7 days the saturated solutions were filtered and analyzed for compound content on an HPLC using a Zorbax Bonus-RP 150×4.6 mm 5 μm particle size column. IRM2 was eluted with a 25:75 ratio of 0.05% trifuoro-acetic acid (TFA) in Acetonitrile to 0.1% TFA in water. Example 6 was eluted with a 10:90 ratio of 0.05% TFA in Acetonitrile to 0.1% TFA in water for three minutes, gradient to a 75:25 ratio of 0.05% TFA in Acetonitrile to 0.1% TFA in water for seven minutes and held at the 75:25 ratio for eight minutes. All HPLC runs were set at a flow rate of 1 mL/min, 20 μL injection volume, and a 254 nm UV detection wavelength. Quantitation was performed against external standards. Results are shown in Table 5 expressed in millimolar (mM) and solubility fold increase of Example 6 over IRM2.

The nature of series [3]: Liberation of IRM1 from IRM-polymer complex in buffered saline at 37° C., measured by HPLC. It counts as physicochemical. The note with it: 0.1 mg/ml. The method, then:
Samples were placed in a thermostated autosampler with the temperature controlled at 37° C. Samples were injected periodically over the course of the experiment and the % of IRM1 liberated was measured by an HPLC system equipped with a thermostatted autosampler set at 37° C. and a Zorbax SB C18, (3.0×150 mm), 3.5 μm particle size column with a column temperature of 40° C. Samples were eluted with a mobile phase of 1% acetic acid in water and methanol. The mobile phase was run at a ratio of 55:45 of 1% acetic acid in water to methanol for five minutes, gradient to 5:95 for ten minutes, held at 5:95 for five minutes, gradient to 55:45 in less than a minute, and held at 55:45 for ten minutes. All HPLC runs were set at a flow rate of 0.5 mL/min, 20 μL injection volume, and a 254 nm UV detection wavelength. The % IRM1 was determined by normalizing the IRM1 peak area by the total peak area of the chromatogram.

The mark [4] stands for this setting: normal saline, saline or isotonic, Saline, 25° C.

≈ marks a conversion by molar mass, not a printed value.

In series [1], `CCCCc1nc2c(N)nc3ccccc3c2n1CCCCNC(=O)CCOCCOCCOCCOCCOCCOCCOCCOCCOCCOCCOCCOCCOCCOCCOCCOCCOCCOCCOCCOCCOCCOCCOCCOCCOCCOCCOCCOCCOCCOCCOCCOCCOCCOCCOCCOCCOCCOCCOCCOCCOCCOCCOCCOCCOCCOC` [Example 6] yielded a Minimum Effective Concentration (µM) IFN-α of 30 µM. For the same molecule, the Minimum Effective Concentration (µM) TNF in series [1] was over 30 µM. The “Solubility Fold Increase” value in series [2] (Phosphate Buffered Saline, pH 7.4) worked out at 75.97; in series [2] (Saline), 142.50. The solubility at 7 days came to 5590 µM (≈ 13300 µg/mL) in series [2] (aqueous buffer, Phosphate Buffered Saline, pH 7.4, 25° C.) and 5970 µM (≈ 14200 µg/mL) in series [2] (setting [4]).
In the case of `CCOCc1nc2c(NC(=O)CCOCCOCCOCCOCCOCCOCCOCCOCCOCCOCCOCCOCCOCCOCCOCCOCCOCCOCCOCCOCCOCCOCCOCCOCCOCCOCCOCCOCCOCCOCCOCCOCCOCCOCCOCCOCCOCCOCCOCCOCCOCCOCCOCCOCCOCCOC)nc3ccccc3c2n1CC(C)(C)O` [Example 7], in series [1], the Minimum Effective Concentration (µM) IFN-α is 3.33 µM. Moreover, in series [1], the Minimum Effective Concentration (µM) TNF is 30 µM. For the same molecule, the “% IRM1” value came out at 2.9% in series [3] (Citrate Buffered Saline, pH 4, 37° C., time 0 hr); 5.7% in series [3] (Citrate Buffered Saline, pH 4, 37° C., time 6 hr); 7.4% in series [3] (Citrate Buffered Saline, pH 4, 37° C., time 10 hr); 9.4% in series [3] (Citrate Buffered Saline, pH 4, 37° C., time 13 hr); 10.6% in series [3] (Citrate Buffered Saline, pH 4, 37° C., time 17 hr); 12.1% in series [3] (Citrate Buffered Saline, pH 4, 37° C., time 20 hr). Moreover, the “% IRM1” value in series [3] (Citrate Buffered Saline, pH 4, 37° C., time 23 hr) turned out to be 13.0%; in series [3] (Citrate Buffered Saline, pH 4, 37° C., time 28 hr) it was 16.5%; in series [3] (Citrate Buffered Saline, pH 4, 37° C., time 30 hr), 17.1%; in series [3] (Phosphate Buffered Saline, pH 7.4, 37° C., time 1 hr), 1.3%; in series [3] (Phosphate Buffered Saline, pH 7.4, 37° C., time 5 hr), 1.5%; in series [3] (Phosphate Buffered Saline, pH 7.4, 37° C., time 10 hr) it was 1.7%. The “% IRM1” value is on record as 1.8% in series [3] (Phosphate Buffered Saline, pH 7.4, 37° C., time 13 hr); 1.9% in series [3] (Phosphate Buffered Saline, pH 7.4, 37° C., time 18 hr); 2.1% in series [3] (Phosphate Buffered Saline, pH 7.4, 37° C., time 20 hr); 2.1% in series [3] (Phosphate Buffered Saline, pH 7.4, 37° C., time 23 hr); 2.3% in series [3] (Phosphate Buffered Saline, pH 7.4, 37° C., time 27 hr); 2.4% in series [3] (Phosphate Buffered Saline, pH 7.4, 37° C., time 30 hr).
In the case of `CCCCc1nc2c(N)nc3ccccc3c2n1CCCCNC(C)=O` [IRM 2, N-[4-(4-Amino-2-butyl-1H-imidazo[4,5-c]quinolin-1-yl)butyl]acetamide, reference compound], the solubility at 7 days in series [2] (setting [4]) worked out at 40 µM (≈ 14.1 µg/mL); in series [2] (phosphate buffered saline (PBS), aqueous buffer, Phosphate Buffered Saline, pH 7.4, 25° C.), 70 µM (≈ 24.7 µg/mL).

Source of the values: patent US20070166384A1, “Methods , composition and preparations for delivery of immune response modifiers” (priority 2004, published 2007).
